The target of one data set is T1, HingeW (designed).
T1 chain: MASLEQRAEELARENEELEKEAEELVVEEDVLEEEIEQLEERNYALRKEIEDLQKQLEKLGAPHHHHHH
The data set is described as follows: CD (281 nm DNA peak); EMSA: 150 mM KCl, 1 mM DTT, 1 mM EDTA, 10 mM Tris, 10 mM MgCl2, pH 8, 4 C, 30 min; CD: buffer with TCEP, pH 7.4, 30 min (rest not in material). Conditions: protein: recombinant; tags: N-terminal MAS, C-terminal GAP-His6; blunt.

For the next data set, the target named is T2, A-FosW (designed).
T2 chain: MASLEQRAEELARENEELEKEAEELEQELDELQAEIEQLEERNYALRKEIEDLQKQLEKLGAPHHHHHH
The data set is described as follows: CD (281 nm DNA peak); 50 uM A-FosW, 5 uM DNA; EMSA: 150 mM KCl, 1 mM DTT, 1 mM EDTA, 10 mM Tris, 10 mM MgCl2, pH 8, 4 C, 30 min; CD: buffer with TCEP, pH 7.4, 30 min (rest not in material). Conditions: protein: recombinant; tags: N-terminal MAS, C-terminal GAP-His6; blunt.

A further data set has as its target cJun bZIP (human, UniProt P05412). Kind of data set: CD (281 nm DNA peak); 20 uM cJun, 5 uM DNA; DNA peak decreases by 55%; EMSA: 150 mM KCl, 1 mM DTT, 1 mM EDTA, 10 mM Tris, 10 mM MgCl2, pH 8, 4 C, 30 min; CD: buffer with TCEP, pH 7.4, 30 min (rest not in material). The following applies: protein: recombinant; tags: C-terminal GAP; His-SUMO cleaved off; chain copies: 2; blunt. Background: Mobility shift assays separate free from complexed probe on a gel.

Sequence of cJun bZIP (P05412 other isoform, or with tags, fused parts or gaps): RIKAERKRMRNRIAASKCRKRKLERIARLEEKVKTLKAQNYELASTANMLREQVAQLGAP

B1: TRE DNA (dsDNA)
DNA 1: GTCAGTCAGTGACTCAATCGGTCA
DNA 2: TGACCGATTGAGTCACTGACTGAC
Regarding B1, the binding result was “no binding” in the data set with HingeW, “no binding” with A-FosW and “binds” with cJun bZIP.
